Biological target: hTERT (human telomerase reverse transcriptase) (human) (UniProt O14746)
Test: cell-based or functional assay

Chain of hTERT (human telomerase reverse transcriptase) (human) (O14746 whole entry): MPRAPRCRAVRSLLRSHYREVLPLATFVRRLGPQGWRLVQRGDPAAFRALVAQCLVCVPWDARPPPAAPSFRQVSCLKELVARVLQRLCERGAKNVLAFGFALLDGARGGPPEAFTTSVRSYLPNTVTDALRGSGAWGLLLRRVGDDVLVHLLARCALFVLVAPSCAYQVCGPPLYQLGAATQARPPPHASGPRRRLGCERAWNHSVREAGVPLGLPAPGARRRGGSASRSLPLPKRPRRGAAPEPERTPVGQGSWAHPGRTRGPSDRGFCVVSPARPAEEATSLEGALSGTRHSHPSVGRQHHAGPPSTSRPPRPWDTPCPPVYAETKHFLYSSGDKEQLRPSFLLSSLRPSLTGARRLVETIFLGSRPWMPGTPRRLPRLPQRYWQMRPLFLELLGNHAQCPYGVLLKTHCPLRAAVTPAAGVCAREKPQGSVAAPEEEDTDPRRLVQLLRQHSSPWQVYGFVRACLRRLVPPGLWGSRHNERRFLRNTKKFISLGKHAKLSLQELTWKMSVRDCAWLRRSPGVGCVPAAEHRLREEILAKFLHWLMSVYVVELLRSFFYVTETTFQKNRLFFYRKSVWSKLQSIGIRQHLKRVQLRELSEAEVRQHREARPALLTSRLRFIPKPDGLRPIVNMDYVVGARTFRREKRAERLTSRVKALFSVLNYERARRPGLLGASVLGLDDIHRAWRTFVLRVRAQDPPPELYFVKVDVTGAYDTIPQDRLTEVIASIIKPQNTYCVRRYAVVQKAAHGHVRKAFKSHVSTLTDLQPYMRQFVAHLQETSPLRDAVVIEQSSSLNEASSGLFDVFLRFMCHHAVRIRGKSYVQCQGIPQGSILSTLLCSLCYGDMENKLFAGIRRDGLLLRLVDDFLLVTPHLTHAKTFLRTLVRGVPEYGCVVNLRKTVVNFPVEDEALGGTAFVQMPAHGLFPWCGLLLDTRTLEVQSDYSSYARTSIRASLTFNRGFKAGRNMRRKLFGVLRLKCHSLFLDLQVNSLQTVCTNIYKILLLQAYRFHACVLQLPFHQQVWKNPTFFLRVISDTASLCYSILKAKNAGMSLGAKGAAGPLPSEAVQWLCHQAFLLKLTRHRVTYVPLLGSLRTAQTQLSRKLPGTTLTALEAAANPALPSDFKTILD

- relative telomerase activity (TRAPEZE kit, real time PCR) in transfected MRC 5 cells against non-transfected cells: 83.4 % elevation
Substance: LRP102-295::FLAG fragment (from UniProt P14206 102-295) (receptor)

Reference: patent US20180325997A1
